The values below come from US7271245B2, “Methods and compositions for inhibition of metastasis” (The Scripps Research Institute, priority 2004, dated 2007).

The assay addresses T1, activated integrin αvβ3 (Homo sapiens, UniProt P05106+P06756).
T1 construct: endogenous in cells; host or cells: MDA-MB 435 variants (Parent Combo, Bone, Lung) and patient blood-derived BMS cells; also β3-negative cells re-transfected with β3WT or β3D723R cDNA
As to the kind of experiment: Flow cytometry, scFv binding to MDA-MB 435 variants and patient metastatic breast cancer cells. On the procedure: FIGS. 1A, 1B, 1C. Patient derived scFvs Bc-12 and Bc-15 recognize tumor cell integrin αvβ3 in a cation and activation dependent manner. Flow cytometric analyses in TBS with or without 1 mM Ca^2+, 1 mM Mg^2+, or 0.2 mM Mn^2+ as indicated. Binding of soluble scFv detected after incubation with anti-Flag M2 murine mAb followed by FITC-anti mouse F(ab′)2. (A) scFv binding to human melanoma cells (M21: αvβ3 plus other αv integrins) (M21-LIIb: αIIbβ3, no αv integrins) or lung adenocarcinoma cells (UCLA-P3: αv integrins, no β3 integrin). (B) scFv binding to M21 melanoma cells. (C) scFv binding to variants of MDA-MB 435 human breast cancer cells that lack (β^3−) or express αvβ3 either in a non-activated (β3WT, ParentCo) or activated form (β3D723R, Bone, Lung, and BMS metastatic cancer cells isolated from breast cancer patient blood).
FIGS. 2A, 2B, 2C, 2D. Translation of scFv DNA sequence analyses. (A) Consensus amino acid sequence (SEQ ID NO: 9) of Bc-12 (SEQ ID NO: 7) and Bc-15 (SEQ ID NO: 8) (specific for activated αvβ3) compared to Bc-20 (specific for αv) (SEQ ID NO: 10). (B) scFv binding to BMS human breast cancer cells by flow cytometry, indicating loss of Bc-12 and Bc-15 binding when CDR-H3 RGD is mutated to RGE (Mut-12 and Mut-15). […] (C) cDNA sequences for scFv Bc-12 (SEQ ID NO: 1) and scFv Bc-15 (SEQ ID NO: 3). The cDNA encoding scFv Bc-12 has an ATCC accession number PTA-6303, date of deposit: Nov. 12, 2004. The cDNA encoding scFv Bc-15 has an ATCC accession number PTA-6304, date of deposit: Nov. 12, 2004. (D) cDNA sequences for scFv Mut-12 (SEQ ID NO: 5) and scFv Mut-15 (SEQ ID NO: 6). scFv Mut-12 is the RGE containing mutant version of scFv Bc-12. scFv Mut-15 is the RGE containing mutant version of scFv Bc-15.
Flow cytometry. scFv binding to human tumor cells was analyzed by flow cytometry, initially with cloned scFv phage and then with purified scFv protein. Per sample, 2×10^5 tumor cells were blocked with goat serum and incubated either with scFv phage (2-5×10^10) (1 h at RT) followed by mouse anti-M13 mAb (Serotec) (30 min on ice) and goat FITC-anti mouse (Pierce) (30 min on ice), or with purified scFv (1.25 to 40 μg/ml, routinely 10 to 15 μg/ml) (45 min on ice), followed by mouse anti-FLAG mAb M2 (Sigma) (30 min on ice) and goat FITC-anti mouse. Binding/washing buffer was TBS with or without divalent cations (1 mM Ca^2+, 1 mM Mg^2+, 0.2 mM Mn^2+). Alternatively, tumor cells were washed in 10 ml of plasma (prepared freshly from human blood anticoagulated with 50 nM D-Phe-D-Pro-D-arginyl chloromethyl ketone, PPACK, Felding-Habermann et al., J. Biol. Chem. 271: 5892-5900, 1996), resuspended in plasma and then incubated sequentially, without washing, with purified scFv (45 min on ice), followed by anti-FLAG M2 (30 min on ice) and FITC-anti mouse (30 min on ice). All samples were counter stained with propidium iodide (PI) and analyzed on a Becton-Dickinson FACScan, with live gate set to exclude PI positive cells.
To test this further, the effects of cation combinations on Bc-12 and Bc-15 binding were examined. […] Smith, Methods Cell Biol. 69: 247-259, 2002; Hughes et al., J. Biol. Chem. 271: 6571-6574, 1996. To confirm that scFv Bc-12 and Bc-15 selectively recognize αvβ3 in its activated form, binding of these antibodies to in vitro generated and in vivo selected variants of the MDA-MB 435 breast cancer cell model was tested. […] In contrast, Bc-12 and Bc-15 were able to bind an MDA-MB 435 variant expressing constitutively activated mutant αvβ3D723R, without exogenous stimulation with Mn^2+. […] Importantly, scFvs Bc-12 and Bc-15 recognized in vivo selected MDA-MB 435 variants from bone and lung metastases, as well as metastatic cells isolated from breast cancer patient blood samples (FIG. 1C). These cells express αvβ3 in a constitutively activated form. Felding-Habermann et al., Proc. Natl. Acad. Sci. U.S.A 98: 1853-1858, 2001; Rolli et al., Proc. Natl. Acad. Sci. U.S.A 100: 9482-9487, 2003.

Substitutions are numbered along the chain they refer to.

T1 sequence (P06756 31-889 limits assumed): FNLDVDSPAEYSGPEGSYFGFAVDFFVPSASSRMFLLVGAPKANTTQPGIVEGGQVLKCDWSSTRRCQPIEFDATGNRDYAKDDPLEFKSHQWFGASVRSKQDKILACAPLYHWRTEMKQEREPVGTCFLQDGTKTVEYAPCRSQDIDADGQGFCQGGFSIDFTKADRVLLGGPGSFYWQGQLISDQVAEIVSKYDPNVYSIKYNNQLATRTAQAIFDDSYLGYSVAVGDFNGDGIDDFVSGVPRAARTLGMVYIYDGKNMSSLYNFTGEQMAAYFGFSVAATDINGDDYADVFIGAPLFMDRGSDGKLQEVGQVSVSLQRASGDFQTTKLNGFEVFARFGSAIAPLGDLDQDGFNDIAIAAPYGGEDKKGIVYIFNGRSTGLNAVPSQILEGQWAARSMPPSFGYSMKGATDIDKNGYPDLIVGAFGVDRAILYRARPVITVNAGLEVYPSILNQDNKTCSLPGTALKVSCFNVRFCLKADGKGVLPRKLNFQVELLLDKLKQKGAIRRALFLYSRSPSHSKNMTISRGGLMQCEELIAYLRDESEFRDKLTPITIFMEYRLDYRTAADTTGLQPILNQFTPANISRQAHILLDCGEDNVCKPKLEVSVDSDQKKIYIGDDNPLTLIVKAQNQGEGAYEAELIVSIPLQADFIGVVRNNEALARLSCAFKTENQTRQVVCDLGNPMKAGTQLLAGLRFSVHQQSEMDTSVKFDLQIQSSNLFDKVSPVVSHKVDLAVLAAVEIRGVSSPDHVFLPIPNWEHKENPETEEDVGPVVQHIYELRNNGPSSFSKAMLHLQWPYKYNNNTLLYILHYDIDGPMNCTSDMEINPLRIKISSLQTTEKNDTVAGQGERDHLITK
T1 sequence (P06756 891-1048 limits assumed): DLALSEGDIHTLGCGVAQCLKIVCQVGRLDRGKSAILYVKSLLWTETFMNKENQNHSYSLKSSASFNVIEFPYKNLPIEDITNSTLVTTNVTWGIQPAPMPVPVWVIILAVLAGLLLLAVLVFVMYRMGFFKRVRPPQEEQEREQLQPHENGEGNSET
T1 sequence (P05106 27-788): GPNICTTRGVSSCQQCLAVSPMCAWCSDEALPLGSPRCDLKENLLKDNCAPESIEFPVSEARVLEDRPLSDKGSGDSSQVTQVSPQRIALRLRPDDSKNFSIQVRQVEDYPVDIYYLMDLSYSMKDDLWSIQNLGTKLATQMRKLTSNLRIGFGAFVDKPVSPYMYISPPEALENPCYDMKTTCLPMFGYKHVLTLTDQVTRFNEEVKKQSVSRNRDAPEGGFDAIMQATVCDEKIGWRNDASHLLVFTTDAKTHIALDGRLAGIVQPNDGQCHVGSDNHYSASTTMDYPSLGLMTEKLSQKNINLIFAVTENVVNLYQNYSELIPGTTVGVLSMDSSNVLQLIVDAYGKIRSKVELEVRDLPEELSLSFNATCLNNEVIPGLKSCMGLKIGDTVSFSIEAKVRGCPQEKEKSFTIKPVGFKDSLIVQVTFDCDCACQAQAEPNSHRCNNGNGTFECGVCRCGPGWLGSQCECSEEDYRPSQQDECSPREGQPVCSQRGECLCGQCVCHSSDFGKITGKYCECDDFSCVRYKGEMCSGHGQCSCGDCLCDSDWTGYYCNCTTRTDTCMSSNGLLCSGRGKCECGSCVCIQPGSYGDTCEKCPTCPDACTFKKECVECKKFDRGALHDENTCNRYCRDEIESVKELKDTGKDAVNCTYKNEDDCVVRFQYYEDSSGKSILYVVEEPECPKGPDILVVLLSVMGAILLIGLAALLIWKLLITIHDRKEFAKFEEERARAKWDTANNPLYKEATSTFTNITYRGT

B1: Bc-12: patient derived human scFv antibody against activated αvβ3 with RGD motif in CDR-H3; cDNA ATCC PTA-6303 (protein)
scFv: MAQVQLVQSGAEVKKPGASVKVSCKASGYTFSNYGITWVRQAPGQGLEWMGWINNGNTHYAQKFQGRVTMTTDTSTSTAYMELRSLRSDDTAVYYCARDPRGDDEPYWGQGTLVTVSSGGGGSGGGGSGGGGSEIVLTQSPLSLPVTLGQPASISCRSSQNLVYSDGNTYLSWFQQRPGQSPRRLIYKVSNRDSGVPDRFSGSGSGTDFTLKISRVEAEDIGVYYCMQGTHWPPRTFGQGTKVEIKRGLGGLVDYKDDDDK
With B1, for the setting “constitutively activated αvβ3”, the “recognition of in vivo selected MDA-MB 435 variants from bone and lung metastases” value is “recognized”; the “recognition of metastatic cells isolated from breast cancer patient blood samples” value was “recognized”. Moreover, the “binding to MDA-MB 435 Parent Combo cells” value (non-activated αvβ3) is “same Mn^2+ dependence”. The “binding to β3 wild type expressing MDA-MB 435 cells” value (β3WT, non-activated αvβ3, without Mn^2+) is listed as “failed to bind”. For the same molecule, where the note is “β3WT, with Mn^2+”, the “binding to β3 wild type expressing MDA-MB 435 cells with Mn2+” value is reported as “recognized when activated with Mn^2+”.

B2: Mut-12: RGE containing mutant version of scFv Bc-12 (protein)
chain: B1 scFv with D103E
With B2, the “binding of RGE mutated scFv to human breast cancer cells” value (BMS cells, compared with parent RGD scFv) was “strongly reduced”.
